In the nanobody polyreactivity screen of Harvey et al. (2022):

Test: yeast display, Sf9 membrane polyspecificity reagent, FACS + sequencing; frameworks hold sequencing errors
Summary of the method: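 A nanobody's polyreactivity label depends on the gate it was sorted from. Yeast display cells were stained with 10% biotinylated, detergent-solubilized Sf9 membrane reagent for 1 hour at 4 °C, enriched on streptavidin microbeads and sorted by FACS. The low and high (top ~1%) gates were set on anti-HA fluorescence for expression and streptavidin fluorescence for reagent binding.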

Row | Sequence | polyreactivity (PSR sort gate)
1 | QVQLVESGGGLVQAGGSLRLSCAASGFIFGLYAMGWYRQAPGKERELVAAISGSGGSTYYADSVKGRFTISRDNAKNTVYLQMNSLKPEDTAVYYCNRAQGVHTYVYRYGYWGQGTQVTVSS | low polyreactivity
2 | QVQLVESAGGLVQAGGSLRLSCAATGFIFWGNAMGWDRQAPGKERELVAGIRSLGGTTSYADSVKGRFTISRDNAKNTVYLQMNSLKPEDTAVYYCAAKYSYYTYAGDGGLFSWSYGYWGQGTQVTVSS | low polyreactivity
3 | QVQLVESGGGLFQAGGSLRLSCAASGRTVVGYAMGWYRQAPGKERELVAAFTGSGGRTYDADSVKGRFTISRDNAKNTVYLQMKSLKPEDTAVYYCNNVYRFSSGAYLYDYWVQGTQVTVSS | high polyreactivity
4 | QVQLVESGGGLVQAGGSLRLSCAASGFIFTDYAMGWYRQAPGKEREFVAAIDWSGGNTYYADSVKGRFTISRDHAKNTVYLQMNRLKPEDTAVYYCNAGDYFVRFVYYWDDERYDYWGQGTQVTVSS | low polyreactivity
5 | QVQLVESGGGLVQEGGSLRLSCAASGSIFDVYAMGWYRQAPGKERELVAAISSSGSTYYADSVKGRFTISRDNAKNTVYLQMNSLKPEDTAVYYCASDQADDDDYYYWGQGNQVTVSS | low polyreactivity
6 | QVQLVESGGCLVQAGGSLRLSCAASGSIFRRNAMGWSRQAPGKERELVAAISRTGGSTYYADSVKGRFTISRDNAKNTVYLQLNSLKPEDTAVYYCNTYSDYADDDYWGQGTQVTVSS | high polyreactivity
7 | QVQIVESRGGLVQAGGSLRLSCAASGSTIPYYAMGRYRQAPGKERELVARIRWNGDSTYYADSVKGRFTISRDIAKNTVYLQINSLKPEDTAVYYCARQGYTLYRTRNRYDYWGKGTQVTVSS | high polyreactivity
8 | QDQLVESGGGLVQAGGSLRLSCAASGFTISSYARGWYRQAPGKERELVAAISTRGGSTYYADSVKGRFTISRDNSKNTVYLQMNSLKPEDTAVSYCATGGRGGRRYEYWGQGTQVTVSS | low polyreactivity
9 | QVQLVESGGGLVQAGGSLRLSCAASGSIFGGYAMGWYRQAPGKERELVAAISSGGSTYYADSVKGRFTISRDNAKNTVYLQMNSLKPEDTAVYYCATSTYAYRRNSYYYTRPRFGYWGQGTQVTVSS | high polyreactivity
10 | QVQLVESGGGLVQAGGSLRLSCAASGSIFYTNAMGWYRQAPGKERELVAAITNGSSTNYADSVKGRFTISRDNAKNTVYLQMNSLNPEDTAVYYCAKYFGNYSIYDYWGQGTQVTVSS | low polyreactivity
11 | QVQLVESGGGLVQAGGSLRLSCAASGRIFGHYVMGWYRQAPGKERELVAAISYSGGSTYYADSVKGRFTISRDNAKITVYLQMISLKPEDTAVYYCAARETQDSPYGAYYYWGQGTQVTVSS | high polyreactivity
12 | QVQLVESGGVLVQAGGSLRLSCAASGSIFGLYAMGWYRQAPGKERELVAAISRRSVSTYYADSVKGRFTISRDNAKNTVYLQMNSLKPEDTAVYYCAAVTYPYLRSQKGYDGYGYWGHGTQVTVSS | high polyreactivity
13 | QVQLVESGGGLVQAGGSLRLSCAASGGIFLPYAMGWYRQAPGKERELVAGITSVGSTYADSVKGRFTISRDNAKNTVYLQMNSLKPEDTAVYYCNADIYFVEYDYWGQGTQVTVSS | low polyreactivity
14 | QVQLVESGGGLVQAGGSLRLSCAASGNTFGYNAMGWYRQAPGKERELVASITWSGGSTYYADSVKGRFTISRDNAKNTVYLEMKSLKPEDTAVYYCNADVRYGRDHWGQGTQVTVSS | low polyreactivity
15 | QVQLVESGGGLVQAGGSLRLSCAASGYTFVRYAMGWYRQAPGKEREFVASISTSGGSTYYADSVKGRFTISRDNAKNTVYLQMNSLKPEDTAVYYCAAGHVVRRPYLIYDYWGQGTQVTVSS | high polyreactivity
16 | QVQLVESGGGLVQAVGSLRLSCAASGLIFFYYSMGWYRPAPGKERELVAAIRTNYADSVKGRFTISRDNAKNTVYLQMNSLKREDTAAYYCAAESSQTPTSAFDYWGQGTQVTVSS | low polyreactivity
17 | QVQLVESGGGLVQAGGSLRISCAASGRTFYQYDMGWYRQAPGKERELVAAIDWSGGSTYYADSVKGRFTISRDNAKNTVYLQMNSLKPEDTAVYYCNADAYPHPVVGYDYWGQGTQVTVSS | low polyreactivity
18 | QVQLVESGGGLVQAGGSLRLSCAASGRTFSRYVMGWYRQAPGKERELVATISDVGNTYYADSVKGRFTISRDNAKNTVYLQMNSLKPEDTAVYYCNRVYFTSRQGQMYYWGQGTQVTVSS | high polyreactivity
19 | QVQLVESGGGLVQAGGSLRLSCAASAYIYRGYPLGRYRQAPGKERELVAAISNIGGTTYYADSVKGRFTISRDNAKNTVYLQMISLKREDTEVYYCAAEHSYWGWAYGYWGQGTQVTLSS | high polyreactivity
20 | QVQLVESGGGLVQAGGSLRLSCAASGRIFSVYGMGWYRQAPGKERELVAAMSSSAGSTNYADSVKGRFTISRDNAKNTVYLQMISLKPEDTAVYYCAAYYRRVVYYPTAYYIRKYDYWGQGSQVTVSS | high polyreactivity
21 | QVQLVESGGGLVQAGGSLRLSCAASGSIFPSNAMGWYRQAPGKERELVAAISWSGDITYYADSVKGRFTISRDNAKNTVYLQLNSLKPEDTAVYYCAADTPIAGYWYNYWGQGTQVTVSS | low polyreactivity
22 | QVQLVESGGGLVQAGGSLRLICAASGIIFNYNAMGWYRQAPGNERELVATISSGDSTNYADSVKGRFTISRDNAKNTVYLQMNSLKPEDTAVYYCAAESPSVFEGYAQLYIILEDYWGQGTQVTVSS | low polyreactivity

Row | Sequence | polyreactivity (PSR sort gate)
23 | QVQLGESGGGLVQAGGSLRLSCAASGSSFWVNAMGWYRQAPGKETELVAAISRGSTYYADSVKGRFTISRDNAKNTVYLQRNSLKPEDTAVYYCNARYLYSHSRYARYHSWGQGTQVTVSS | high polyreactivity
24 | QVQLVESGGGLVQAGGSLRLSCAASGYTLYLNAMGWYSQAPGKERELVARISGGGSTNYADYVKGRFTMSRDNAKNTVYLQMNSLKPEDTAVYYCAATIFAYGYRSFKLDYWGQGTQVTVSS | low polyreactivity
25 | QVQLVESGGGLVQAGGSLRLSCAASGRTFTGYAMGWYRQAPGKEREFVAAITQRGGSTYYADSVKGRFTISRDNAKNTVYLQMNSLKPEDTAVYYCAASYLTWKRRYDYWGQGTQVTVSS | high polyreactivity
26 | QVQLVESGGGLVQAGGSLRLSCAASGLTFKENVMGWYRQAPGKERELVAAISTGASTYYADSVKGRFTISRDNAKNTVYLQMNSLKPEDTAVYYCAKRVTRWYGYWGQGTQVTVSS | high polyreactivity
27 | QVQLVESGGGLVQAGGSLRLSCAASGINNSVNDMGLYRQAPGKERELVAAISSGDSTNYADSVKGRFTISRDNAKNTVYLQMNSLKPEDTAGYYCAALEGCLTGWQTYDYWGQGTQVTVSS | low polyreactivity
28 | QDQLVESGGGLVQAGGSLRLSCAASGFIFGTYAMGWYRQAPGKEREFVAAINWGGGRTYYADSVKGRFTISRDNAKNTVYLQMNSLKPEDTAVYYCAADFGLYYPRYGYWGQGTQVTVSS | high polyreactivity
29 | QVQLVESGGGLVQAGGSLRLSCAASGRIFVRNAMGWYRQAPGKERELVAAISWRGTSTYYADSVKGRFTISRDNAKNTVYLQMNSLKPEDTAVYYCAKRISGYRGDYWGQGTQVTVSS | high polyreactivity
30 | QVQLVESGGGLVQAGGSLRLSCAASGYTFKTYAMGWYRQAPVKERELVAAISGSGGSTYYADSVKGRFTISRDNAKNTVYLQMNSLKPEDTAVYYCNASPTTTPNFWRYDYWGQGTQVTVSS | high polyreactivity
31 | QVQLVESGGGLVQAGGSLRLSCAASGSTFWFYAMGWYRQAPGTERELVAVISNSGSTYYADSVKGRFTISRDNAKNTVYLQMNSLKPEDTEVYYCNKDGGGDSYWYDYWGQGTQVTVSS | low polyreactivity
32 | QVQLVESGGGLVQAGGSLRLSCAASRSIFPLYAMGWYRQAPGKERELVAAITYSGGRTYYADSVKGRFTISRDNAKNTVYLQMISLKPEDTAVYYCNTRQRVIDDYWGQGTQVTVSS | high polyreactivity
33 | QVQLVESGGGLVQAGGSLRLSCAASGSIFTYNAMGWYRQAPGKERELVAAISSRGTSTYYADSVKGRFTISRDNAKNTVYLQMNSLKPEDTAVYYCAAVWVSQRRPWGNTNNYWGQGTQVTVSS | high polyreactivity
34 | QVQLVESGGGLVQAGGSLRLSCAASGSIFSYYDMGWYRQAPGKERELVADISSTGGSTYYADSVKGRFTISRDNAKNTVSIQMNSLKPEDTAVYYCAAEIGYWGQGTQVTVSS | high polyreactivity
35 | QDQLVESGGGLVQPGGSLRLSCAASGRTFRFNAMGWYRQAPGKERELVAVITSNDGSTYYADSVKGRFTISRDNAKNTVYLQMNSLKPEDTAVYYCAADWSYAWSWFYYWGQGTQVTVSS | low polyreactivity
36 | QVQLVESGGGLVQAGGSLRLSCAASGSTLPTNAMLWYRQAPGKEREFVAAISDNGGSTYYADSVKGRFTISRDNAKNTVYLQMNSLKPEDTAVYYCAADNFGPEFYYWGQGTQVTVSS | low polyreactivity
37 | QVQLVESGGGLVQAGGSLRLSCAASGITFEGYAMRWYRQAPGKERELVAAITGSGSTTYYADSVKGRFTISRDNAKNTVYLQMNSLKPEDTAVYYCAADVSYKLYWGQGTQVTVSS | low polyreactivity
38 | QVQLVESGGGLVQAGGSLRLSCAASGRTFPAYAMGWYRQAPGKERELVAAISYSGGRTRYADSVKGRFTISRDNAKNTVYLQMNSLKPEDTAVYDCNRVIPTQSLRDYYWGQGTQVTVSS | high polyreactivity
39 | QVQLVESGGGLVQAGGSLRLSCAASGSIFARYAMGWYRQAPGTERELVAAISRNGGSTYYADSVKGRFTISRDNAKNTVYLQMNSLKPEDTAVYYCAASYYVLYTREYDYWGQGTQVTVSS | low polyreactivity
40 | QVQLVESGGGLVQAGGSLRLICAASGITFSVYTMGWYRQAPGKERELVAAIDSDGITNYADSVKGRFTISRDNAKNTVYLQLNSLKPEDTAVYYCAKQSGRADGVSGFDYWGQGTQVTVSS | low polyreactivity
41 | QVQLVESGGGLVQAGGSLRLSCAASGSIFPAYAMGWYRQAPGKERELVAASTDRGGSTSYADSVKGRFTISRDNAKNTVYLHKNSLKPEDT | low polyreactivity
42 | QVQLVESGGGLVQAGGSLRLSCAASGYTFKTYPMGSYRQAPGKERELVAAISGSGGSTYYADSVKVRFTISRDNAKNTVYLQMNSLNPEDTAVYYCNASPTTTPNFWRYDYWGQGTQVTVSS | high polyreactivity
43 | QVQLVESGGGLVQAGGSLRLSCAASGFTFYTNAMGWYRQAPGKERDMVAVITSGGNTYYADSVKGRFTISRDNAKNTVYLQMNSLKPEDTAVYYFAAIPKRPIRFDYWGQGTQVTVSS | high polyreactivity
